# Laboratory results taken from US20250381223A1 (UTC THERAPEUTICS SHANGHAI, published 2025).
# Changes are numbered by the printed parent chain.
# B1: huVH4huVL2 (antibody, human IgG1, kappa, V domains shown)
# VH: QVQLQESGPGLVKPSETLSLTCTVSGFSLSDYGVHWIRQPPGKGLEWIGVIWAGGGTNYNSALKSRVTISVDTSKNQVSLKLSSVTAADTAVYYCARDKGYSYYYSMDYWGQGTTVTVSS
# VL: DIQLTQSPSSLSASVGDRVTITCRASESVEYYVTSLMQWYQQKPGKAPKLLIFAASNVESGVPSRFSGSGSGTNFTLTISSVQPEDFATYFCQQSRKVPYTFGGGTKLEIKR
# B2: huVH5huVL2 (antibody, human IgG1, kappa, V domains shown)
# VH: B1 VH with L29I, S61P, A62S
# VL: B1 VL
# B3: huVH4huVL3 (antibody, human IgG1, kappa, V domains shown)
# VH: B1 VH
# VL: B1 VL with N74D, V82L, F91Y
# B4: BCMA22 (scFv)
# scFv: QSALTQPASVSGSPGQSITISCTGTSSDVGGYNYVSWYQQHPGKAPKLMIYEVTNRPSGVSNRFSGSKSGNTASLTISGLQAEDEAHYYCISYTSSSTLDYVFGTGTKVTVLGGGGSGGGGSGGGGSEVQLVESGPGLVKPSGTLSLTCAVSGGSISSSNWWSWVRQPPGKGLEWIGEIYHSGSTNYNPSLKSRVTISVDKSKNQFSLKLSSVTAADTAVYYCARVGSGYSYGYGDRVLDYWGQGTLVTVSS
# notes: On lentivirus-transduced T cells as CAR; also called anti-BCMA scFv BCMA22
# B5: BCMA24 (scFv)
# scFv: QSVLTQPPSASGTPGQRVTISCSGSSSNIGSYSVNWYQQIPGTAPKLLIYSNNQRPSGVPDRFSGSKSGTSASLAISGLQSEDEADYSCAAWDDSLNGVVFGGGTKLTVLGGGGSGGGGSGGGGSQVQLVQSGAEVKKPGSSVKVSCKASGGTFSSYAISWVRQAPGQGLEWMGGIIPIFGTANYAQKFQGRVTITADESTSTAYMELSSLRSEDTAVYYCARGSFYSSVNVWGQGTTVTVSS
# notes: On lentivirus-transduced T cells as CAR; also called anti-BCMA scFv BCMA24
# B6: BCMA27 (scFv)
# scFv: QSALTQPPSASGSPGQSVTISCTGSRSNVGSYNDVSWYQQHPGKAPKLIIYDVDKRPAGVPDRFSGSKSGNTASLTVSGLQAEDDADYYCSSYGGTYSLFVFGTGTELTVLGGGGSGGGGSGGGGSEVQLVESGGDLVQPGGSLRLSCAASGFTFSSYGMHWVRQAPGKGLEWVAVISYDGSNKYYADSVKGRFTISRDNSKNTLYLQMNSLRAEDTAVYYCAKEEFYGDSSYGMDVWGQGTTVTVSS
# notes: On lentivirus-transduced T cells as CAR; also called anti-BCMA scFv BCMA27
# B7: BCMA31 (scFv)
# scFv: QSALTQPPSASGSPGQSVTISCTGTSSDVGTYNYVSWYQQHPGKAPKLMIYDVNQRPSGVPDRFSGSKSGNTASLTVSGLQAEDEADYYCSSYGGSNNLVFGGGTKVTVLGGGGSGGGGSGGGGSEVQLVESGGGLIQPGGSLRLSCAASGFTFSSYWMSWVRQSPGKGLEWVANIKPDGSDKYYVDSVKGRFTISRDNAKNSLDLQMNSLRGEDTAIYYCARGATTYGSWGQGTLVTVSS
# notes: On lentivirus-transduced T cells as CAR; also called anti-BCMA scFv BCMA31
# B8: BCMA30 (scFv)
# scFv: DIQMTQSPSFLSASVGDRVTITCRASQGISSYLAWYQQKPGKAPKLLIYAASTLQSGVPSRFSGSGSGTEFTLTISSLQPEDFATYYCQQLNSYPPWTFGQGTKVEIKGGGGSGGGGSGGGGSQVQLVQSGAEVKKPGESLKISCKGSGYRFTSYWIGWVRQMPGKGLEWMGIIYPGDSDTRYSPPFQGQVTISADKSIDTAYLQWSSLKASDTAMYYCARLDASGSQRGGMDVWGQGTTVTVSS
# notes: On lentivirus-transduced T cells as CAR; also called anti-BCMA scFv BCMA30
# B9: BCMA34 (scFv)
# scFv: QPGLTQPPSVSKGLRQTATLTCTGNSNNVGNQGAAWLQQHQGHPPKLLSYRNNNRPSGISERFSASRSGNTASLTITGLQPEDEADYYCSAWDSSLSARVFGGGTKLTVLGGGGSGGGGSGGGGSQVQLVQSGAEVKKPGASVKVSCKTSGYTFSNPFVHWVRQAPGQGLEWVGIINLSGGDTLYAQKFQGGVTMTRDTSTNTAYMELTSLTFEDTAVYYCARDQAGFGDSAYWGQGTLVTVSS
# notes: On lentivirus-transduced T cells as CAR; also called anti-BCMA scFv BCMA34
# B10: BCMA32 (scFv)
# scFv: QSALTQPASVSGSPGQSITISCTGTSSDVGGYNYVSWYQQHPGKAPKLMIYDVSKRPSGVSNRFSGSKSGNTASLTISGLQAEDEADYYCSSYTSSSTVVFGGGTKLTVLGGGGSGGGGSGGGGSQVQLQESGAEVKKPGSSVKVSCKASGGTFSRYAISWVRQAPGQGLEWMGGIIPFFGTSDYAQKFQGRVTITADESTSTAYMDLSRLRSEDTAVYYCAVRVATTGTGFYYAMDVWGQGTTVTVSS
# notes: On lentivirus-transduced T cells as CAR; also called anti-BCMA scFv BCMA32
# B11: BCMA28 (scFv)
# scFv: QSALTQPPSVSEAPRQRVTISCSGSSSNIGQNAVNWYQKLPGKAPKLLIYYNDLVSSGVSDRFSGSKSGTSASLAISGLQSEDEADYYCATWDDSLNGVVFGGGTKVTVLGGGGSGGGGSGGGGSQVQLVQSGPGLVKPSQTLSLTCAISGDSVSSNSAAWNWIRQSPSRGLEWLGRTYYRSKWYNDYAVSVKSRITINPDTSKNQFSLQLNSVTPEDTAVYYCARDYYYGMDVWGQGTTVTVSS
# notes: On lentivirus-transduced T cells as CAR; also called anti-BCMA scFv BCMA28
# B12: BCMA23 (scFv)
# scFv: QSALTQPPSASGTPGQRVTISCSGSSPNIGGNSVNWYQQLPGTAPKLLMYTNNQRPSGVPDRFSGSKSGTSASLAISGLQSEDEADYYCAAWDDSLNGVVFGGGTKLTVLGGGGSGGGGSGGGGSQVQLVQSGAEVKKPGESLKISCKGSGYSFTSYWIGWVRQMPGKGLEWMGIIYPGDSDTRYSPSFQGQVTISADKSISTAYLQWSSLKASDTAMYYCARRGGALDYWGQGTLVTVSS
# notes: On lentivirus-transduced T cells as CAR; also called anti-BCMA scFv BCMA23
# B13: BCMA33 (scFv)
# scFv: QSALTQPPSASGSPGQSVTISCTGTSSDVGGYNYVSWYQQHPGKAPKLMIYEVSKRPSGVPDRFSGSKSGNTASLTVSGLQAEDEADYFCSSYAGSNNFVVFGGGTKLTVLGGGGSGGGGSGGGGSEVQLVESGGGLVQPGRSLRLSCAASGFTFDDYAMHWVRQAPGKGLEWVSGISWNSGSIGYADSVKGRFTISRDNAKNSLYLQMNSLRAEDTALYYCAKVGASAALGAFDIWGQGTMVTVSS
# notes: On lentivirus-transduced T cells as CAR; also called anti-BCMA scFv BCMA33
# B14: 4.1 (bispecific antibody)
# scFv-G4S-scFv: DIQLTQSPSSLSVSVGDRVTISCRASESVEYYVTSLMQWYQQKPGQAPKLLIFAASNVESGVPSRFSGSGSGTNFTLTISSVQEEDFAMYFCQQSRKVPYTFGGGTKLEIKGGGGSGGGGSGGGGSQVKLQESGPGLVKPSETLSITCTVSGFSLSDYGVHWVRQSPGKGLEWLGVIWAGGGTNYNSALMSRKTISKDNSKSQVFLKMSSLTAADTAVYYCARDKGYSYYYSMDYWGQGTTVTVSSGGGGSQSALTQPPSASGSPGQSVTISCTGTSSDVGAYNFVSWYQQHPGNAPKLIIYDVRKRPSGIPDRFSASKSGNTASLTVSGLQADDEADYYCSSYAGNNNLVFGGGTKLTVLGGGGSGGGGSGGGGSQVQLVQSGAEVKKPGSSVKVSCKASGGTFSSYAISWVRQAPGQGLEWMGMINPSGGTTSYAQKFQGRVTMTRDTSTSTVYMELSSLRPEDTAVYYCARGFRMDQWGQGTLVTVSS
# notes: expressed from mRNA in T cells
# Target: T1, CD28 (detection antigen of the BLI assay) (human, UniProt P10747 19-152, limits assumed)
# T1 construct: also called the antigen
# Assay: BLI (GATOR); antibody loaded at 30 nM, antigen 300-37.5 nM
# Source text: The affinity kinetics of the humanized antibodies were detected using biolayer interferometry (BLI). The experimental procedures were as follows: [0533] 1. GATOR instrument was run, and the Kinetics experimental mode was selected. [0534] 2. The analysis program was run according to Table 5
Binder,Kd,koff,kon
B1,10.9 nM,0.000932 s⁻¹,85400 M⁻¹ s⁻¹
B2,10.8 nM,0.000909 s⁻¹,84100 M⁻¹ s⁻¹
B3,11.2 nM,0.000966 s⁻¹,86600 M⁻¹ s⁻¹

# Target: T2, recombinant Human/Cynomolgus CD28 (N-6His) (Human/Cynomolgus, UniProt P10747 19-152)
# T2 construct: Bought protein; also called antigen CD28; not shown: 6His tag at the N-terminus (N-6His)
# Assay: ELISA; plate coated with CD28 (N-6His) 2 µg/mL; HRP-anti-hFc
# Method: The binding activity of the humanized antibody to the antigen CD28 was detected by the ELISA method. The experimental procedures were as follows: [0525] 1. 30 μL of recombinant Human/Cynomolgus CD28 (N-6His) (Suzhou Novoprotein Scientific Inc., C406) at a concentration of 2 μg/mL was added to each well of an ELISA plate, and the plate was incubated at 4° C. overnight. [0526] 2. The next day, the ELISA plate was washed 3 times with PBST (containing 0.05% Tween-20). [0527] 3. 250 μL of 5% skim milk powder (dissolved in PBS) was added to each well of the ELISA plate, and the plate was incubated at room temperature for 2 h. [0528] 4. The plate was washed 3 times with PBST, antibodies with different dilution ratios were added to the ELISA plate at 30 μL/well, and the plate was incubated at room temperature for 60 min. [0529] 5. The plate was washed 3 times with PBST, 30 μL of HRP-anti-hFc antibody was added to each well, and the plate was incubated at room temperature for 60 min. [0530] 6. The plate was washed 3 times with PBST, 30 μL of TMB was added to each well, and after color development at room temperature, 30 μL of 2 M H₂SO₄ was added to each well to stop the reaction. The plate was read at 450 nm.
row,Binder,EC50
1,B1,0.0126 µg/mL
2,B2,0.0151 µg/mL
3,B3,0.0127 µg/mL

# Target: T3, BCMA-Fc recombinant protein (human, UniProt Q02223 1-54)
# T3 construct: construct not described; not shown: Fc part
# T3 sequence (looked up): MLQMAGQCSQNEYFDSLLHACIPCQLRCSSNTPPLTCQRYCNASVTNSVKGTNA
# Assay: flow cytometry; CAR-T cells stained with 5 µg/mL BCMA-Fc, anti-human IgG Fc
# Method: (5) Screening for functional anti-BCMA scFv in T cells: the anti-BCMA scFv was constructed into a bicistronic lentiviral CAR expression vector containing an IRES-truncated EGFR (tEGFR) expression cassette. The lentivirus was produced by transient transfection of 293T cells, followed by purification by ultracentrifugation and concentration. T cells were transduced with the CAR lentivirus to generate CAR-T cells, which were then cultured for 10 days. 10 days after lentivirus transduction, CAR-T cells were collected and stained with 5 μg/mL CD19-Fc protein (Ctrl Fc protein) or BCMA-Fc recombinant protein for 30 min at 4° C. After washing, the CAR-T cells were stained with the anti-human IgG Fc and anti-EGFR mAb. The samples were analyzed using a flow cytometer.
row,Binder,binding result
1,B4,binds
2,B5,binds
3,B6,binds
4,B7,binds
5,B8,binds
6,B9,binds
7,B10,binds
8,B11,binds
9,B12,binds
10,B13,binds

# Target: T4, CD40-Fc (human, UniProt P25942)
# T4 construct: part fused to Fc; staining reagent of the flow cytometry; also called recombinant human CD40-Fc antigen protein
# Assay: flow cytometry of T cells co-electroporated with 15 µg diabody mRNA and 2 µg M12 CAR mRNA; CD40-Fc + PE-anti-Fc; E1 without mRNA: 0.56
row,Binder,% of cells in the positive gate
1,B14,95.8

# Target: T4, CD40-Fc
# Assay: flow cytometry of T cells co-electroporated with 15 µg diabody mRNA and 0.5 µg 4D5.BBZ mRNA; CD40-Fc + PE-anti-IgG-Fc; E1 without mRNA: 0.27
row,Binder,% of cells in the positive gate
1,B14,95.3
